Results taken from patent US20250145729A1.

Molecular target: cyno CD98hc (cynomolgus monkey)
Assay: SPR (Biacore)

Substance: LLB2.C.1 (from UniProt P0DOX5 233-449) (Fc fusion)
- Kd: 1500 nM
